Measurements reported in the nanobody polyreactivity screen of Harvey et al. (2022).

Assay: yeast display, Sf9 membrane polyspecificity reagent, FACS + sequencing; frameworks hold sequencing errors
Summary of the method: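 In a synthetic yeast display library (Saccharomyces cerevisiae BJ5465), nanobody expression was induced with galactose for 36–48 hours. FACS gates were set low and high (top ~1%) using anti-HA fluorescence for expression and streptavidin fluorescence for binding of the Sf9 membrane reagent. Each polyreactivity label is drawn from the gate of origin.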

| Sequence | polyreactivity (PSR sort gate) |
| --- | --- |
| QVQLVESGGGLVQAGGSLRLICAASGFIFGGYGMGWYRQAPGKERELVAVITASGGSTYYADSVKGRFTISRDNAKNTVYLQMNSLKPEDTAVYYCAARVGRYGYSQYYYWGQGTQVTVSS | high polyreactivity |
| QEQQQESGGGQLQAGGSLLLSCAASGNIIRYYYMGWYRQAPGKERELVAAITYGTSTNYADSVKGRFTISRDNAKYSVYLQMISLKPEDTAVYYCAVDVNYGDPLDNWGQGTQVTVSS | high polyreactivity |
| QVQLVESGGGLVQAGGSLRLSCAPSGSIFDSNAMGWYRQAPGKERELVAAISSSGARTYYADSVKGRFTISRDNAKNTVYLQMNSLKPEDTAVYYCAARYAGGYYYWGQGTQVTVSS | high polyreactivity |
| QVQLVESGGGLVQAGGSLRLSCAASGIIFDYYAMGWYRQAPGKERELVATITGNSTNTYYADSVKGRFTISRDNAKNTVYLQMNSLKPEDTAVYYCATAQTRWWPSIAGYDYWGQGTQVTVSS | high polyreactivity |
| QVQLVESGGGIVQAGCSLRFSCAASGGTFGYYTLGWYRQAPGKERQLVAAISSGGGTDYADSVKGRFTISRDNAKNTVSLQMNSLKAEDTAVYYCNAQWLEWHYVFLPSYTMDYWGLGTQVTVSS | low polyreactivity |
| QVQLVESGGGLVQAGGSLRLSCAASGLIFDSYDMGGSRQAPGKERELVAAIRRNGGSTYYADSLKGRFTISRDNAKNTVYLQMNSLIPEDTEVYYCAVDNSGYSGVYWVKMDYWGQGTQVTVSS | low polyreactivity |
| QVQLVESGGGLVQAGGSLRLSCAASGRIFNYNAMGWYRQAPGKERELVATITRGGNTYYADSVKGRFTISRDNAKNTVYLQMNSLKPEDTAVYYCNAAWWKVSYVRQKYYYWGQGTQVTVSS | high polyreactivity |
| QVQLVESGGGLVQAGGSLRLSCAASGRTFGRYVMGWYRQAPGKERELVSAISKGGTSTYYADSVKGRFTISRDNAKNTVYLQMISLKPVVTAVYYCAAGSFARYTYVPRYDYWGQGTQVTVSS | high polyreactivity |
| QVQLVESGGGLVQAGGSLRLSCAASGSIFYKYTMGWYRQAPGKERELVAAITKSGGSTYYADSVKGRFTISRDNAKNTVYLQMNSLKPEDTAVYYCAAQIGRSATRGSYGYWGQGTQVTVSS | high polyreactivity |
| QVQLVESGGGLVQAGGSLRLSCAASGRIFPWYAMGWYRQAPGKERALVAAINWRAGRTYYADSVKGRFTISRDNAKNTVYLQMNSLKPEDTAVYYCAAETYSSGEWYDYWGQGTQVTVSS | high polyreactivity |
| QVQLVESGGGLVQAGGSLRLSCAASGSIFWAYTMGWYRQAPGKERELVAAISASGGSTYYADSVKGRFTISRDNAKNTFYLQMNSLKPEDTAVYYCNKDYHRPYGGGSKGDYWGQGTQVTVSS | low polyreactivity |
| QFQLVESGGGLVQAGVSLRLSCAASGSIIKYYAMGWYRQAPGKERELVATINWNGGSTYYADSVKGRFTISRDNAKNTVYLQMNSLKPEDTAVYYCAAGYRGSYYHSHYEYLGQGTQVTVSS | high polyreactivity |
| QVQLVESGGGLVQAGGSLRLSCAASGSIIFRYAMGWSRQAPGKERELVARISWGGGRTYYADSVKGRFTISRDNAQNTVYLQMNSLKPEDSAVYYCNRAFWVNPGGFDYWGQGTQVTVSS | high polyreactivity |
| QVQLVESGGGLVQAGGSLRLSCAPSGSIFRKYAMGRYRQAPGKERELVAAIRSSGGSTYYADSVKGRFTISRDKAKNSVYFQLNSLKPEDTAVYYCAARYYRPSRYDYWGQGTQVTVSS | high polyreactivity |
| QVQLVESGGGLVQAGGSLRLSCAASGRTFRSYAMGWYRQAPGKERELVVAISLSGGSTYYADSVKGRFTISRDNAKNTVYLQMNSLKPVDTAVYYCNADLIKGTYRWYEGGSQYGYWGQGTQVTVSS | low polyreactivity |
| QVQLVESGGGLVQAGGSLRLSCAASGSIFGQYAMGRYRQAPGKERDLVAAIDWSSASTYYADSVKGRVTISRDNAKNTVYLQMNSLKPEDTAVYDCNAVGKYYRYDYWGQGTQVTVSS | high polyreactivity |
| QVQLVESGGGLVQAGGSLRLSCAASGFIFAGYHMAWYRQAPGKERELVAAISSSGANTYYADSVKGRFTISRDNAKNTVYLQMNSLKPEYSAVYYCAALYHWTYDYWGQGTQVTVSS | low polyreactivity |
| QVQHVESGGGLVQAGGSLRLSCAASGFIFGYYTMGWSRQAPGKERELVAAITSGDSTNYADSVKGRFTISRDNAKNTVYLQMNSLKPEDTAVYYCNARGLFTWMDYWGQGTQVTVSS | low polyreactivity |
| QVQLVESGGGLVQAGGSLSLSCSASGRTLYFYAMGWYRQAPGKERELVAAIRWRGGSTYYADSVKGRFTISRDNAKNTVYLQMNSLKPEDTAVYYCAADVPSGYDYWGQGTQVTVSS | high polyreactivity |
| QVQLVESGGGLVQAGGSLRLSCAASGSTFQLYAMGWYRQAPGKERELVAAISGIGDSTYYADSVKGRFTISRDNAKYTVYLQMNSLKPEDTAVYYCAREFCDGLSGKFDYWGQGTQVNVSS | low polyreactivity |
| QDQLVESGGGLVQAGGSLRLSCAASGITFQYYAMGWYRQAPGKERELVAAITKRGGSTYYADSVKGRFTISRDNAKNTVYLQMKSLKPEDTAVYYCAADYGSWRNYIFLDDYWGQGTQVTVSS | high polyreactivity |
| QVQLVESRGGLVQAGGSLRLSCAASGFTFYYYAMGWYRQAPGKERELVAAISGRGGSTYYADSVKGRFTISRDNAKNSVYLQMNSLKPEDTAVYYCAAVPIVRLEYWGQGTQVTVSS | high polyreactivity |

| Sequence | polyreactivity (PSR sort gate) |
| --- | --- |
| QVQLVESGGGLVQAGGSLRLSCAASGYTLYPNAMGRYRQAPGKERELVAAISSGSSTYADSLKGRFTISRDNAKNTVYLQMNSLKPVDTAVYYCNADARIHYDYWGQGTQVTVSS | low polyreactivity |
| QFQLVESGGGLVQAGGSLRLSCAASGFIFRYNAMGWYRQAPGKERELVAAIDSGGSTYYADSVKGRFTISRDNAKNTVDLQMNSLKPEDTAVYYCYAVHEASYSGVDYWGQGTQVTVSS | low polyreactivity |
| QVQLVESVGGLVQAGGSLRLSCAASGFNFSAYAMGGYRQAPGKESELVAAISWSGSRTYYADSVKGRFTISRDNAKNTVYLQMNSLKPEDTAVFYCAKEPYDTFGFYEYDYWGQGTQVTVSS | low polyreactivity |
| QVQLVESGGGLVQAGGSLRLSCAASGSIITGYAMGWYRQAPGKERELVAAITGNAGSTYYADSVKGRFTISRDNAKNTVYLQMNSLKPEDTAVYYCNARSWYVRVDYWGQGTQVTVSS | low polyreactivity |
| QVQLVESGGGLVQAGGSLRLSCAASGSTFRSYAMGGYIQAPGKERELVAAISGRGGSTYYADSVKGRFTISRDNAKNPVYLQMNSLKPEDTAVYYCNAVPGVSYWGQGLDYWGQGTQVTVSS | low polyreactivity |
| QVQLVESGGGLVQARGSLRLRFAASGSTFPYYAMGWDRQAPGKERELVATITKRGGRKYYADSVKGRFTISRDNAKNTVYFLMTSLKPEDTAVYYCAARFRFAVTYDYWGQGTQVTVSS | high polyreactivity |
| QVQLVESGGGLVQAGGSLRLSCAASGSNFVVYAMGWYRQAPGKERELVAAISWGIGSTYYADSVKGRFTISRDNAKNTVYLHMNSLKPQDTAVYYCAADTDIVLYDYWGQGTQVTVSS | low polyreactivity |
| QVQLVESGGGLVQAGGSLRLSCAASGFIFYYYAMGWYRQAPGKERELVAGITATGGSTYYADSVKGRFTISRDNAKNTVYLQMNSLKPEDTAVYYCARGPSGTPNGNTPYGDNRYNSWGQGTQVTVSS | low polyreactivity |
| QVQLVESGGGLVQEGGSLRLSCAASGSTFWVYVMGWYRPAAGKERELVAGISSRGGNTYYADSVKGRFTISRDKAKNSVYLQMNSLKPEDTAVYYCNAPYGGDYESARDYWGQGTQVTVSS | low polyreactivity |
| QVQLVESGGGLVQAGGSLRLSCAASGFILTSYAMGWNRQAPGKERELVAAISSRGGRTYYADSVKGRFTISRDNAKNTVYLQMNSLKPEDTAVYYCNAVVYVVGDFDYWGQGTQVTVSS | high polyreactivity |
| QVQLVESGGGLVQAGGSRRLSCAASGSTFAYYAMGWYRQAPGKERELVAAISWRGGSTYYADSVKGRFTISRDNAKNTVYLQMNSLKPEDTAVYYCATLSAWKASSYDYWGQGTQVTVSS | high polyreactivity |
| QVQLVESGGGLVQAGGSLRLSCAASVSTFAVYAMGWYRQAPGKERELVAAISSSGDRTFYADSVKGRFTISRDNAKNTVYLQMNSLKPEDTAVYYCNVPYKYRRAYDGGYDYWGQGTQVTVSS | high polyreactivity |
| QVKLVESGGGLVQAGGSLRLSCAASGGIFSPNAMGWYRHAPGKERELVAAISSNGGSTNYADSVKGRFTISRDNAKNTVYLQMNSLKPEDNAVYYCAKVYRSIGPNVSRYGLSYYYWGQGTQVTVSS | low polyreactivity |
| QVQLVESGGGLVQAGGSLRLSCAASGRIFHTYAMGWYRQAPGKEREFVAAIRWSGGSTYYADSVKGRFTISRDNAKNTVYLQMNSLKPEDTAVYYCAREQVRYYSWFGYWGQGTQVTVSS | high polyreactivity |
| QVQLVESGGGLVQAGGSLRLSCAASGSIFGVNAMGWYRQAPGKERELVAAISSGGSTNYADSVKGRFTISRDNAKNTVYLQMNSLKPEDTAVSYCNTLWGHQYIGPYRTRECYYWGQGTQVTVSS | low polyreactivity |
| QVQLVESGGGLVQAGGSLRLSCAASGFIFSRYAMGWSRQAPGKERELVAAISSRGGSTYYADSVKGRFTISRDNAKNTVYLQMNSLKPEDTAVFYWIAVGSAHYDYWGQGTQVTVSS | high polyreactivity |
| QVQLVERGGGLVQAGGSHRLSCAASGRIFPGYAKGWYRQAPGKELELVAAISRIGGDTYYADSVKGRFTISRDNAKNTVYLQMNSLKPEDTPVYYCAARYGRHRVSWYATWRYGYWGQGTQVTVSS | low polyreactivity |
| QVQLVESGGGLVQAGGSLRLSCAASGLTVYYYAMGWYRQAPGKERELVASISRSGGSTYYADSVKGSFTISRDNAKNTVYLQMNSLKPEDTAVYYCNVSVYRCTVKGTFDMDHWGQGTQVTVSW | high polyreactivity |
| QVQLVESGGGLDQAGGSLRLSCAASGFIFDYYAMGWYRQAPGKERELVAAISWDGDSTNYADSVKGRFTISRDNAKNTVYLQMNSLKPEDTAVYYCNADEQLVDGWFFRYDYWGQGTQVTVSS | low polyreactivity |
| QVQLVESGGGLVQAGGSLRLSCAASGITLHEYVMGWYRQAPGKERELVAAISRRGDSTYYADSVKGRFTISRDNAKNTVYLQMNSLKPEDTAVYYCAARWYWYWSSWDYYSWGQGTQVTVSS | low polyreactivity |
| QVQLVESGGGLVQAGGSLRLSCAASGSTFRGYVMGWYRQAPGKERELVAAITWGGGRTYYADSVKGRFTISRDNAKNTVYLQMNSLKPEDTAVYYCAARVRGQGSYQFGYWGQGTQVTVSS | high polyreactivity |
